Laboratory results taken from patent US20260125454A1 (SHANGHAI JUNSHI BIOSCIENCES, published 2026).
Where a chain is given by its changes, count along the chain named. Several values for one entry are separate records, joined by “and”; a condition that tells them apart may be missing. Equal entries are not always repeated. Where two headings read alike, the source gives them in different places. Bridges are numbered along the chain shown (N, C = ends). Where no end group is shown, it is not given here.

T1: Biotin-huCGRPaSA (human, not fully specified; biotin (position not given))
T1 construct: exact construct ('aSA') not explained; also called Biotin CGRPaSA; full-length (1-37) CGRP
T1 peptide: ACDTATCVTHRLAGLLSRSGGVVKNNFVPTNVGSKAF

T2: Biotin-1-19 polypeptide (human, disulfide 2-7; not fully specified (N-terminus); printed as Biotin-Linker(G5)-ACDTATCVTHRLAGLLSRS; ends not checked; also: biotin, position not given here)
T2 construct: also called fragment CGRP (1-19); truncated (1-19) CGRP
T2 peptide: ACDTATCVTHRLAGLLSRS

T3: human β-CGRP (human, UniProt P10092 82-118, not fully specified)
T3 construct: mature; also called human full-length (1-37) β-CGRP polypeptide (Anaspec)
T3 peptide (looked up): T1 peptide with D3N, V22M, N25S

B1: C117 (antibody, V domains shown)
VH: EVQLQQSGPELVKPGASVKISCKASGYTFTDYNMHWVKQSHGKSLEWIGNIYPYNGGTVYNQKFNNKATLTVHTSSSTAYMDLRSLTSDDSAVYYCAREGLGGYWGQGTTLTVSS
VL: DIVLTQSPASLAVSLGQRATISCKASQNIDYDGYAYLNWYQQKPGQPPKVLIYSVFNLESGIPARFSGSGSGTDFTLNIHPVEEEDAATYYCQQSNEFPYTFGGGTKLEVK
notes: 2B8-HC1 + 1A2-LC2; chimeric, human constant regions
B2: C269 (antibody, V domains shown)
VH: B1 VH with A24T, N50Y, Y52S, V59A, N65K, N66F, A68S, H73D, D82E, D89E
VL: B1 VL with A35T, V55I, F98V, V110I
notes: 3E5-HC + 3E5-LC; chimeric, human constant regions
B3: C232 (antibody, V domains shown)
VH: EVQLQQSGPELVKPGASMKISCKASGYSFTGYTMNWVKQSHGNNLEWIGLINPYIGNTHYNQKFKDKATFTVDRSSSTAYMALLSLTSEDSAVYYCARELDSGFDYWGQGTTLTVSS
VL: B1 VL
notes: 3C1-HC + 1A2-LC2; chimeric, human constant regions
B4: 3E5 (antibody, V domains shown)
VH: B1 VH with A24T, N50Y, Y52S, V59A, N65K, N66F, A68S, H73D, D82E, D89E
VL: B1 VL with A35T, V55I, F98V, V110I
notes: murine hybridoma supernatant; also called hybridoma antibody 3E5
B5: C246 (antibody, V domains shown)
VH: B3 VH
VL: B1 VL with A35T, V55I, F98V, V110I
notes: 3C1-HC + 3E5-LC; chimeric, human constant regions
B6: C253 (antibody, V domains shown)
VH: B3 VH
VL: B1 VL with A9D, D32G, A35S, L37M, N78T, F98A, V110I, K111R
notes: 3C1-HC + 3H10-LC2; chimeric, human constant regions
B7: C245 (antibody, V domains shown)
VH: B3 VH
VL: DVLMTQTPLSLPVSLGDQASLSCRSSQNIVHSNGDTYLEWYLQKPGQSPKLLIYKVSNRFSGVPDRFSGSGSGTDFTLKISRVEAEDLGVYYCYQGSHVPWTFGGGTKLEIK
notes: 3C1-HC + 3C1-LC; chimeric, human constant regions; also called chimeric antibody C245
B8: 3C1 (antibody, V domains shown)
VH: B3 VH
VL: B7 VL
notes: murine hybridoma supernatant; also called hybridoma antibody 3C1
B9: C79 (antibody, V domains shown)
VH: EVQLQQSGPELVKPGASVKISCKTSGYTFIDFNMHWVKQSHGKSLEWIGYIYPYNGDVVYNQNFTNKATLTVDSSSSTAYMELRRVTSEDSAIYYCAREGLGGYWGQGTTLTVSS
VL: DVVLTQSPTSLAVSLGQRATISCQASQNIDGNTYMNWYQQKPGQPPKVLIYSIFNLESGIPARFSGSGSGTHFTLTIHPVEEEDAATYYCQQSNDYPYTFGGGTKLEIK
notes: 1F5-HC + 2B8-LC2; chimeric, human constant regions
B10: C71 (antibody, V domains shown)
VH: B9 VH
VL: B1 VL
notes: 1F5-HC + 1A2-LC2; chimeric, human constant regions
B11: C74 (antibody, V domains shown)
VH: B9 VH
VL: B1 VL with Y31F, L37M, Q42H, K49R, N96H, F98V, K107N, V110I
notes: 1F5-HC + 1F5-LC1; chimeric, human constant regions

Assays:
[1] = biological target: CGRP antigen; assay: cell-based or functional assay
[2] = biological target: T1, Biotin-huCGRPaSA; assay: ELISA, transfection supernatant, biotin-CGRP on streptavidin
Method: Streptavidin was diluted to 0.5 μg/mL by using PBS (Hyclone) and added into a plate at 100 μL/well. The plate was incubated in a thermostat incubator at 37° C. for 90 min and then washed. 2% BSA was added to the plate at 200 μL/well, and the plate was incubated in the thermostat incubator at 37° C. for 90 min and washed. Biotin-huCGRPaSA was diluted to 2.0 μg/mL with 2% BSA and added into the plate at 100 μL/well, and the plate was incubated in the thermostat incubator at 37° C. for 60 min. The reference antibody (47-RM) was diluted to 2500 ng/ml with a diluent (2% BSA) and serially 4-fold diluted to 0.15 ng/mL, and the chimeric antibodies were diluted with a cell supernatant stock solution. All the chimeric antibody solutions and the reference antibody solution were added into plates at 80 μL/well, and the plates were incubated in a thermostat incubator at 37° C. for 60 min and washed. An HRP-conjugated mouse anti-human antibody IgG4 (manufacturer: Southern Biotech, Cat. No. 9200-05; Fc specificity) was diluted 5000-fold with 2% BSA and added into the plates at 100 μL/well, and the plates were incubated in the thermostat incubator at 37° C. for 60 min and washed. 0.1 mg/mL chromogenic reagent TMB was carefully added at 100 μL/well to avoid bubbles, and the system was incubated at 37° C. for 10 min away from light for chromogenic reaction. Finally, a 2 M hydrochloric acid solution was added at 100 μL/well to stop the reaction while avoiding bubbles, and the plates were read on a microplate reader within 10 min (the detection wavelength was 450 nm; the reference wavelength was 620 nm).

[3] = biological target: T1, Biotin-huCGRPaSA; assay: ELISA, purified antibody; relative to reference 47-RM-20190815
Method: Streptavidin was diluted to […] by using PBS (Hyclone) and added into a plate at 100 μL/well. The plate was incubated in a thermostat incubator at 37° C. for 90 min and then washed. 2% BSA was added to the plate at 200 μL/well, and the plate was incubated in the thermostat incubator at 37° C. for 90 min and washed. Biotin-huCGRPaSA was diluted to 2.0 μg/mL with 2% BSA and added into the plate at 100 μL/well, and the plate was incubated in the thermostat incubator at 37° C. for 60 min. The chimeric antibodies in Table 3 and reference antibody (47-RM-20190815) were diluted to 1000 ng/ml with a diluent (2% BSA) and serially 10-fold diluted to 1 ng/mL. All the chimeric antibody solutions and the reference antibody solution were added into plates at 100 μL/well, and the plates were incubated in a thermostat incubator at 37° C. for 60 min and washed. An HRP-conjugated mouse anti-human antibody IgG4 (manufacturer: Southern Biotech, Cat. No. 9200-05; Fc specificity) was diluted 5000-fold with 2% BSA and added into the plates at 100 μL/well, and the plates were incubated in the thermostat incubator at 37° C. for 60 min and washed. 0.1 mg/mL chromogenic reagent TMB was carefully added at 100 μL/well to avoid bubbles, and the system was incubated at 37° C. for 5 min away from light for chromogenic reaction. Finally, a 2 M hydrochloric acid solution was added at 100 μL/well to stop the reaction while avoiding bubbles, and the plates were read on a microplate reader within 10 min (the detection wavelength was 450 nm; the reference wavelength was 620 nm). EC₅₀ was fit by using a four-parameter logistic regression (4PL) model.

[4] = biological target: CGRP antigen; assay: cell-based or functional assay; remark: listed apart in the source
[5] = biological target: T2, Biotin-1-19 polypeptide; assay: ELISA, transfection supernatant, biotin-CGRP(1-19) on streptavidin
Method: Streptavidin was diluted to 0.5 μg/mL by using PBS (Hyclone) and added into a plate at 100 μL/well. The plate was incubated in a thermostat incubator at 37° C. for 90 min and then washed. 2% BSA was added to the plate at 200 μL/well, and the plate was incubated in the thermostat incubator at 37° C. for 90 min and washed. Biotin-1-19 polypeptide was diluted to 2.0 μg/mL with 2% BSA and added into the plate at 100 μL/well, and the plate was incubated in the thermostat incubator at 37° C. for 60 min. The reference antibody (Lily) was diluted to 2500 ng/ml with a diluent (2% BSA) and then serially 4-fold diluted to 0.15 ng/ml. For chimeric antibodies, the stock solution was diluted. All the chimeric antibody solutions and the reference antibody solution were added into plates at 80 μL/well, and the plates were incubated in a thermostat incubator at 37° C. for 60 min and washed. An HRP-conjugated mouse anti-human antibody IgG4 (manufacturer: Southern Biotech, Cat. No. 9200-05; Fc specificity) was diluted 5000-fold with 2% BSA and added into the plates at 100 µL/well, and the plates were incubated in the thermostat incubator at 37° C. for 60 min and washed. 0.1 mg/mL chromogenic reagent TMB was carefully added at 100 μL/well to avoid bubbles, and the system was incubated at 37° C. for 10 min away from light for chromogenic reaction. Finally, a 2 M hydrochloric acid solution was added at 100 μL/well to stop the reaction while avoiding bubbles, and the plates were read on a microplate reader within 10 min (the detection wavelength was 450 nm; the reference wavelength was 620 nm).

[6] = biological target: T3, human β-CGRP; assay: ELISA, hybridoma supernatant
[7] = biological target: CGRP antigen; assay: cell-based or functional assay; remark: listed apart in the source
[8] = biological target: CGRP antigen; assay: cell-based or functional assay; remark: listed apart in the source

Row | Binder | Relative binding activity (%) vs Ref(Teva) [1] [%] | OD value [2] [OD] | Relative activity (%) [3] [%] | OD value [5] [OD] | further results
1 | B1 | 74.1 | 3.06 | 31.7 |  | 
2 | B2 |  | 2.91 | 101 |  | EC50 (so labelled in the table under the curves; half-maximal inhibition of the CGRP-induced luciferase signal in SK-N-MC CRE 2E9 reporter cells, CGRP antigen at 4 ng/mL) [4]: 143 ng/mL
3 | B3 |  | 3.28 | 3.4 | 3.15 | 
4 | B4 |  |  |  |  | binding result [6]: binds
5 | B5 |  |  |  | 0.91 | 
6 | B6 |  | 2.46 |  | 2.94 | 
7 | B7 |  | 3.31 | 240 | 2.51 | Relative binding activity (%) vs Ref(Teva) [7]: 116%; IC50 of reference C245 [8]: 18 ng/mL and 23.6 ng/mL and 25.9 ng/mL and 28.1 ng/mL
8 | B8 |  |  |  |  | binding result [6]: binds
9 | B9 | 71.1 | 3.03 | 59.8 |  | Relative binding activity (%) vs Ref(Teva) [7]: 71.1%
10 | B10 | 106 | 3.06 | 47.3 |  | 
11 | B11 | 76 | 3.06 | 39.5 |  | 
